Results on 41 molecules are retold here after patent US20160115500A1 (University of California, published 2016).

First the molecules themselves.
B1: PYR1^K59R,E141F (receptor)
chain: MPSELTPEERSELKNSIAEFHTYQLDPGSCSSLHAQRIHAPPELVWSIVRRFDKPQTYRHFIKSCSVEQNFEMRVGCTRDVIVISGLPANTSTERLDILDDERRVTGFSIIGGEHRLTNYKSVTTVHRFEKENRIWTVVLFSYVVDMPEGNSEDDTRMFADTVVKLNLQKLATVAEAMARNSGDGSGSQVT
notes: pBD-PYR1 fusion in yeast
B2: PYR1^K59R,E141H (receptor, not shown: small tags and cut ends)
chain: B1 chain with F141H
notes: pBD-PYR1 fusion in yeast
B3: PYR1^K59R,V164M (receptor, not shown: small tags and cut ends)
chain: B1 chain with F141E, V164M
notes: pBD-PYR1 fusion in yeast
B4: PYR1^K59R,V164S (receptor, not shown: small tags and cut ends)
chain: B1 chain with F141E, V164S
notes: pBD-PYR1 fusion in yeast
B5: PYR1^K59R,V164N (receptor, not shown: small tags and cut ends)
chain: B1 chain with F141E, V164N
notes: pBD-PYR1 fusion in yeast
B6: PYR1^K59R,A160I (receptor, not shown: small tags and cut ends)
chain: B1 chain with F141E, A160I
notes: pBD-PYR1 fusion in yeast
B7: PYR1^K59R,N167S (receptor, not shown: small tags and cut ends)
chain: B1 chain with F141E, N167S
notes: pBD-PYR1 fusion in yeast
B8: PYR1^K59R,V164L (receptor, not shown: small tags and cut ends)
chain: B1 chain with F141E, V164L
notes: pBD-PYR1 fusion in yeast
B9: PYR1^K59R,A160N (receptor, not shown: small tags and cut ends)
chain: B1 chain with F141E, A160N
notes: pBD-PYR1 fusion in yeast
B10: PYR1^K59R,M158G (receptor, not shown: small tags and cut ends)
chain: B1 chain with F141E, M158G
notes: pBD-PYR1 fusion in yeast
B11: PYR1^K59R,A160V (receptor, not shown: small tags and cut ends)
chain: B1 chain with F141E, A160V
notes: pBD-PYR1 fusion in yeast
B12: PYR1^K59R,V164G (receptor, not shown: small tags and cut ends)
chain: B1 chain with F141E, V164G
notes: pBD-PYR1 fusion in yeast
B13: PYR1^K59R,N167D (receptor, not shown: small tags and cut ends)
chain: B1 chain with F141E, N167D
notes: pBD-PYR1 fusion in yeast
B14: PYR1^K59R,E141L (receptor, not shown: small tags and cut ends)
chain: B1 chain with F141L
notes: pBD-PYR1 fusion in yeast
B15: PYR1^K59R,N167Q (receptor, not shown: small tags and cut ends)
chain: B1 chain with F141E, N167Q
notes: pBD-PYR1 fusion in yeast
B16: PYR1^K59R,N167T (receptor, not shown: small tags and cut ends)
chain: B1 chain with F141E, N167T
notes: pBD-PYR1 fusion in yeast
B17: PYR1^K59R,T162L (receptor, not shown: small tags and cut ends)
chain: B1 chain with F141E, T162L
notes: pBD-PYR1 fusion in yeast
B18: PYR1^K59R,N167A (receptor, not shown: small tags and cut ends)
chain: B1 chain with F141E, N167A
notes: pBD-PYR1 fusion in yeast
B19: PYR1^K59R,M158S (receptor, not shown: small tags and cut ends)
chain: B1 chain with F141E, M158S
notes: pBD-PYR1 fusion in yeast
B20: PYR1^K59R,V164T (receptor, not shown: small tags and cut ends)
chain: B1 chain with F141E, V164T
notes: pBD-PYR1 fusion in yeast
B21: PYR1^K59R,A160Y (receptor, not shown: small tags and cut ends)
chain: B1 chain with F141E, A160Y
notes: pBD-PYR1 fusion in yeast
B22: PYR1^K59R,M158A (receptor, not shown: small tags and cut ends)
chain: B1 chain with F141E, M158A
notes: pBD-PYR1 fusion in yeast
B23: PYR1^K59R,A160S (receptor, not shown: small tags and cut ends)
chain: B1 chain with F141E, A160S
notes: pBD-PYR1 fusion in yeast
B24: PYR1^K59R,N167G (receptor, not shown: small tags and cut ends)
chain: B1 chain with F141E, N167G
notes: pBD-PYR1 fusion in yeast
B25: PYR1^K59R,V164F (receptor, not shown: small tags and cut ends)
chain: B1 chain with F141E, V164F
notes: pBD-PYR1 fusion in yeast
B26: PYR1^K59R,A160T (receptor, not shown: small tags and cut ends)
chain: B1 chain with F141E, A160T
notes: pBD-PYR1 fusion in yeast
B27: PYR1^K59R,V164C (receptor, not shown: small tags and cut ends)
chain: B1 chain with F141E, V164C
notes: pBD-PYR1 fusion in yeast
B28: PYR1^K59R,E141Q (receptor, not shown: small tags and cut ends)
chain: B1 chain with F141Q
notes: pBD-PYR1 fusion in yeast
B29: PYR1^K59R,H115N (receptor)
chain: B1 chain with H115N, F141E
notes: pBD-PYR1 fusion in yeast
B30: PYR1^K59R,V164H (receptor, not shown: small tags and cut ends)
chain: B1 chain with F141E, V164H
notes: pBD-PYR1 fusion in yeast
B31: PYR1^K59R,M158L (receptor, not shown: small tags and cut ends)
chain: B1 chain with F141E, M158L
notes: pBD-PYR1 fusion in yeast
B32: PYR1^K59R,I110M (receptor, not shown: small tags and cut ends)
chain: B1 chain with I110M, F141E
notes: pBD-PYR1 fusion in yeast
B33: PYR1^K59R,V164E (receptor, not shown: small tags and cut ends)
chain: B1 chain with F141E, V164E
notes: pBD-PYR1 fusion in yeast
B34: PYR1^K59R,V164Q (receptor, not shown: small tags and cut ends)
chain: B1 chain with F141E, V164Q
notes: pBD-PYR1 fusion in yeast
B35: PYR1^K59R,V164A (receptor, not shown: small tags and cut ends)
chain: B1 chain with F141E, V164A
notes: pBD-PYR1 fusion in yeast
B36: PYR1^K59R,F108A (receptor, not shown: small tags and cut ends)
chain: B1 chain with F108A, F141E
notes: pBD-PYR1 fusion in yeast
B37: PYR1^K59R,F108A,S122G,A160V (receptor)
chain: B1 chain with F108A, S122G, F141E, A160V
notes: pBD-PYR1 fusion in yeast
B38: PYR1^K59R,F108A,S122G,F159L (receptor)
chain: B1 chain with F108A, S122G, F141E, F159L
notes: pBD-PYR1 fusion in yeast
B39: PYR1^K59R,F108A,S122G,F159M (receptor)
chain: B1 chain with F108A, S122G, F141E, F159M
notes: pBD-PYR1 fusion in yeast
B40: PYR1^K59R,F108A,S122G,F159V (receptor)
chain: B1 chain with F108A, S122G, F141E, F159V
notes: pBD-PYR1 fusion in yeast
B41: PYR1^K59R,F108A,S122G (receptor, not shown: small tags and cut ends)
chain: B1 chain with F108A, S122G, F141E
notes: pBD-PYR1 fusion in yeast; also called pBD-PYR1^K59R,F108A,S122G

Changes are numbered by the printed parent chain. Names and notes keep the numbering of the source.

One assay concerns the target T1, GAL4 activation domain fusion (ACT) to HAB1 (UniProt Q9CAJ0 23-511, limits assumed).
T1 construct: pACT-HAB1 fusion in yeast reporter strains; also called pACT-HAB1
T1 sequence (looked up): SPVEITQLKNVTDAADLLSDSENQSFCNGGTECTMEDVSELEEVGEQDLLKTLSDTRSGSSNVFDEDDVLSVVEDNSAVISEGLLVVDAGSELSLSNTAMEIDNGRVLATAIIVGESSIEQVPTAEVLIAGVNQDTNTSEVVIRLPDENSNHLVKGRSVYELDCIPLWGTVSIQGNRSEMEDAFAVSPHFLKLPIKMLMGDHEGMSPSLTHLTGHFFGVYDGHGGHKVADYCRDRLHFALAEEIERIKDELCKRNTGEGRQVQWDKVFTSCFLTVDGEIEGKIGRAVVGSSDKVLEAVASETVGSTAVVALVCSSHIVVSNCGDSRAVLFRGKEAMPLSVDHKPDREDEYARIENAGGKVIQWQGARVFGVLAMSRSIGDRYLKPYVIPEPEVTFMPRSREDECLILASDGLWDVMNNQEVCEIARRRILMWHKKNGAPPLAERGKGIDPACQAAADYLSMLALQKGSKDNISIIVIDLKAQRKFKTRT
Nature of the assay: yeast two-hybrid, X-gal; lowest dichlobenil concentration giving signal.
On to B1, for which the Threshold turned out to be 100 µM.

Turning to B2, the Threshold is 100 µM.

With B3, the Threshold is 100 µM.

For the molecule B4, the Threshold turned out to be 100 µM.

B5 came in with a Threshold of 100 µM.

B6 gave a Threshold of 100 µM.

Molecule B7 gave a Threshold of 100 µM.

In turn, B8 gave a Threshold of 100 µM.

In turn, B9 displayed a Threshold of 100 µM.

Molecule B10 yielded a Threshold of 100 µM.

Molecule B11 returned a Threshold of 100 µM.

B12: the Threshold was found to be 100 µM.

As to B13, the Threshold is 100 µM.

B14 returned a Threshold of 100 µM.

As for B15, the Threshold was 100 µM.

As for B16, the Threshold was found to be 100 µM.

For B17, the Threshold was determined as 100 µM.

B18 returned a Threshold of 100 µM.

Consider B19, for which the Threshold came to 100 µM.

B20 displayed a Threshold of 100 µM.

In turn, B21 had a Threshold of 100 µM.

As for B22, the Threshold came out at 100 µM.

As for B23, the Threshold was found to be 100 µM.

B24 displayed a Threshold of 100 µM.

Take B25: the Threshold amounted to 100 µM.

As for B26, the Threshold stood at 100 µM.

Take B27: the Threshold worked out at 100 µM.

As for B28, the Threshold is 100 µM.

For B29, the Threshold stood at 100 µM.

As for B30, the Threshold is 100 µM.

B31 displayed a Threshold of 100 µM.

For B32, the Threshold turned out to be 100 µM.

In turn, B33 registered a Threshold of 100 µM.

On to B34, for which the Threshold was found to be 100 µM.

Molecule B35 displayed a Threshold of 100 µM.

A further assay addresses T1, GAL4 activation domain fusion (ACT) to …. Kind of assay: yeast two-hybrid, X-gal; lowest mandipropamid concentration giving signal.
Regarding B36, the Threshold was 100 µM.

For the molecule B37, the Threshold came out at 0.25 µM.

In the case of B38, the Threshold amounted to 0.05 µM.

For B39, the Threshold was 0.25 µM.

Take B40: the Threshold amounted to 0.25 µM.

As for B41, the Threshold was found to be 1 µM.
